# Experimental data reported in the nanobody polyreactivity screen of Harvey et al. (2022).
# Test: yeast display, Sf9 membrane polyspecificity reagent, FACS + sequencing; frameworks hold sequencing errors
# Method in brief: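 Nanobodies from a synthetic yeast display library (Saccharomyces cerevisiae BJ5465), induced 36–48 hours with galactose, were stained 1 hour at 4 °C with 10% biotinylated, detergent-solubilized Sf9 membrane reagent, enriched on streptavidin microbeads, then FACS-sorted. Anti-HA (expression) and streptavidin (reagent binding) fluorescence set low and high (top ~1%) gates. Polyreactivity labels come from the gate of origin. Genes were colony-PCR amplified, MiSeq 2 × 250 sequenced and filtered by CDR length.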
row,Sequence,polyreactivity (PSR sort gate)
1,QVQLVESGGGLVQAGGSLRLSCASSGRIFYTYAMGWYRQAPGKERELVAAIRYSGGSTYYADSVKGRFTISRDNAMNTVYLQINSLKPEDTAVYYCAATVYTKQFDYWGQGTQVTVSS,high polyreactivity
2,QVQLVESGGGLVQAGGSLRLSCAASGFIFWWYAMGWYRQAPGKERELVATITASVGSTNYADSVKGRFTISRDTAKNTVYLQMNSLKPEDTAVYYCATDIIGAIRDWDHTRMDYWGQGTQVTVSS,low polyreactivity
3,QVQLVESGGGIVQAGGSLRLSCAASGSIFYPYVMGWYRQAPGKERELVAAITTSVGSTYYADSVKGRFTISRDHAKNTVYLQMNSLKPEDTAVYYCAAKYFGSRRPGRYNYWGQGTQVTVSS,high polyreactivity
4,QVQLVESGGALVQAGGSLRLSCAASGFTFFRNAMGWYRQAPGKERELVAAISGSGGSTYYADSVKGRFTISRDNAKNTVYLQMNSLKPEDTAVYYCATYSYPAKVREAYNYWGQGTQVTVSS,low polyreactivity
5,QVQLVESGGGLVQAGGSLRLSCAASGFTFYRYAMGWYRQAPGKERELVAAISWSGASTYYADSVKGRFTISRDNAKNTVYLQMNSLKPEDTPVYYCNAYDTYLGGFDYWGQGTQVTVSS,high polyreactivity
6,QVQLVESGGGLVQAGGSLRLSCAASGFTFRYYSMGWYRQAPGKERELVAAISSGGSTKYADSVKGRFTISRDNAKNTVYLQMNSLKPEDTAVYYCAARVVDGAQPRYVVIINTRYYWGQGTQVTVSS,high polyreactivity
7,QVQLVESGGGIVQAGGSLRLSCAASGITSYFNAMGWYRQAPGKERELVAITWNGGSTYYADSVKGRFTITRDNAKNTVYLQMNSLKPEDTAVYYCAARYRRYNRKYDYWGQGTQVTVSS,high polyreactivity
8,QDQLVESGGGLVQAGGSLRLSCAASGSIFYQNAMGWYRQAPGKERELVAAISIGGGSTYYADSVKGRFTISRDNAKNTVYLQMNSLKPEDTAVYYCATRRSVIYSYVPFDYWGQGTQVTVSS,low polyreactivity
9,QVQLVESGGGLFQAGGSLRLSCAASGFTFSNYAMGWYRKAPGKERELVAAITRRGGRTRYADSVKGRFTISRDNAKNTVYLQMNSLKPEDTAVYYCARSRYRYIVTTLYLYDYWGQGTQVTVSS,high polyreactivity
10,QVQLVESGGGLVQAGGSLRLSSAASGSTFTFYAMGWYRQAPGKERELVATISWSTGTTYYADSVKGRFTISRDNAKNTVYLQMNSLKPEVTAVYYCAAPWSYRYDYWGQGTQVTVSS,low polyreactivity
11,QVQLVESGGGLVQAGGSLRLSCAASGFIFSYYAMGWYRPAPGKERELVAAITDSGGSTYYADSVKGRFTISRDNAKNSVYLQMNSLKPEYTAVYYCATEIEQTAEYDYLGQGTQVTVSS,low polyreactivity
12,QVQLVESGGGLVQAGGSLRLSCAASGSIFKRYARGWYRPAPGKERELVAAISWSGGNTYYADSVKGRFTISRDNSKNTVYLQMNSLKPEDTAVYYCAKRYRGGYYYPYNYWGQGTQVTVSS,high polyreactivity
13,QVQLQESGGGLVQAGGSLRLSCAASGYISHADEMGWYRQAPGKEHELVASISNGGSTNYADSVKGRFTISRDNAKNTVYLQMNSLKSEDTAVYYCAAWTGQVDIHYYWGLGTQVTVSS,low polyreactivity
14,QVQLVESGGGLVQAGGSLRLSCAASGSIFYDYAMGWYRQAPGKERELVATISSGGSTNYADSVKGRFTISRDNAKNTVYLQMNSLKPEDTAVYYCNVDGRRYPHEFDYWGQGTQVTVSS,low polyreactivity
15,QVQLVESGGGLVQAGGSLRLSCAASGSTFGSYAMGWYRQAPGKERELVAAISYSGGSTYYADSVKGRFTISRDNAKNTVYLLMNSLKPEDTAVYYCATVRKYRAMDYWGQGTQVTVSS,high polyreactivity
16,QVQLVESGGGLVLAGGRLRLSCAASGSTFGYYAMGWYRQAHGKERELVAAISQGAGRTYYADSVKGRFTISRDNAKNTDYLQMNSLKPEDSAVYYFAASVTVHRWAYGYWGQGTQVTVSS,high polyreactivity
17,QVQLVESGGGLVQAGGSLRLSCAASGRTFVSNVMGWYRQAPGKERELVAAINWSGDSTYYADSVKGRFTISRDNAKNTVYLQMNSLKPEDTAVYYCARRNPLGGNEHDYWGQGTQVTVSS,low polyreactivity
18,QVQLVESGGGLVQAGGSLRLSCAASGSIFWGNAMGWYRQAPGKERELVADISGGDTYYADSVKGRFTISRDNAKNTVYLQMNSLKPEDTAVYYCAADVWQYFYPYGYYYWGLGTQVTVSS,high polyreactivity
19,QVQLVESGGGLVQAGGSFRLSCAASGLISTTYAMGWYRQAPGKERELVAAINVSGGSTYYADSVKGRFTISRDHAKNTVYLQMNSLKPEDTAVYYCAARHDKRRQYYVGQSAFDYWGQGTQVTVSS,low polyreactivity
20,QVQLVESGGGLVQAGGSLRLSCAASGFTFWSYAMGWYRPAPGKERELVAAISRGGSTSYADSVKGRFTISRDNAKNTVYLLMNSLKPEDTAVYYCAALRPYRNDKGDYWGQGTQVTVSS,high polyreactivity
21,QVQLVESGGGLVQAGGSLRLSCAASGRSFTGYAMGWYRQATGKERELVASISDSGASTYYADSVKGRFTISRDNAKNTVYLLMNSLKPEDTAVFYCAASYPSYNWSVGDDDYWGQGTQVTVSS,low polyreactivity
22,QVQLQESGGGLVQAGGSLRLSCAASGYISQSSVMGWYRQAPGKEREFVASISYGATTYYADSVKGRYTISRDNAKDTVYLQTNSPKPEVTAVYYCAVCVKRGFSHRYWGQGTQVTVSS,high polyreactivity

row,Sequence,polyreactivity (PSR sort gate)
1,QVQLVESGGGLVQAGGSLRLSCAASGFIFSGNAMGWYRQAPGKERELVAAISTSGGRTYYADSVKGRFTISRDNAKNSDYLQMKSLKPEDTAVYYFNRAPWYRYTRDKYEYWGQGTQVTVSS,high polyreactivity
2,QVQLVESGGGLVQAGGSLRLSCAASGSIFRRNTMGWYRQAPGKERELVAAITFTGGRTYYADSVKGRFTISRDYAKNTVYLQMNSLKPEDTAVYYCNRVTAYYPTKFDYWGQGTQVNVSS,high polyreactivity
3,QVQLVESGGGLVQAGGSLRLSFAASGRTFLVYAMGWYRQAPGKERELVAGITSGGGTYYADSVKGRFTISRDNAKNTVYLQMNSLKPEDTAVYYCAKYRWYGVYWGQGTQVTVSS,low polyreactivity
4,QVQLVESGGGLVQAGGSLRLSCAASGYIFDVYAMGWYRQAPGKERELVAAISSSGGRTYYADSVKGRFTISRDTAKNTVYLQMNSLKPEDTAVYYCAAKTHSRTKVYTADYWGQGTQVTVSS,high polyreactivity
5,QVQLVESGGGLVQAGGSLRLSCAASGRTFGRYAMGWYRQAPGKERELVATITSGGSTNYADSVKGRFTITRDNAKNTVYLQMNSLKPEDTAVYYCAAEFSPSRWAYSEGALRYNYWGQGTQVTVSS,low polyreactivity
6,QVQLVESGGGLVQAGGSLRLSCAASGSTFTYYTMGWYRQAPGKERELVAAITSGTSTNYADSVKGRFTISRDNAKNTVYLQMNSLTPEDTAVYYEYDYWGQGTQVTVSS,low polyreactivity
7,QVHLVESGGGLVQAGGRLRLSCAASGSIFRLYAMGWYRQAPGKERELVARITTGGSTNYADSVKGRFTISLDNAKNTVYFQMNSLKPEDTAVYYCNGGVLVTAQMGWQKYSYWGQGSQVTVSS,high polyreactivity
8,QVQLVESCGGLVQAGGSLRLSCASSGFIFFENAMGCYIQAPCKERELVAVISSSGTSTYYADSVKGRFTISRDNAKNTVYLQMTSLKPEDTAVYYCAKDYYRSYGREDYWGQGTQVTVSS,low polyreactivity
9,QVQLVESGGGLVQAGGSLRLSCAASGSTFEVYAMGWYRQAPGKERELVAAINSRGTSTYYADSVKGRFTISRDNAKNTVYLQMNSLKPEDTAVYYCNAVRDWGPSQVYDGMDYWGQGTQVTVSS,low polyreactivity
10,QVQLVESGGGLVQAGGSLRLSCAASGFIFRIYAMGWYRQAPGKERELVAAITWDGVSTYYADSVKGRFTISRDNAKNTVYLQMNSLKPEDTAVYYCAARKRSYPYYYWGQGTQVTVSS,high polyreactivity
11,QVQLVESGGCLVQAGGSLRLSCAASGFTFVRNAMGWYRQAPGKDRELVAAISGSGGRTYYADSVKGRFTISRDNAKNTVYLQMNSVKPEDTAVYYCNTASAYEYEYWGQGSQVTVSS,high polyreactivity
12,QVQLVESGGGLVQAGGSLRLSCAAYGFIVPAYAMGWYRQAPGKERELVAAISWDGGSTYYADSVKGRFTISRDNAKNTVYLQMNSLKPEDTPVYYCAATFFADTWYGWYDYWGQGTQVTVSS,high polyreactivity
13,QVQLVESGGGLVQAGGSLRLSCAASGFIFGSNVMGWYRQAPGKERELVAAITSGSRTYYADSVKGRFTISRDNAKNTVYLQMNSLKPEDTAVYYCAKRNPIKYYGGGYWGQGTQVTVSS,high polyreactivity
14,QVQLVESGGGLVQAGGSLRLTCAASGSTFKSYAMGWYRQDPGKERELVAAITVSGGSTYYADSVKGRFTISRDNAKNTVYLMMNSLTPEDTSVYYCAADSVLLKDTGYDYWGQGTQVTVSS,low polyreactivity
15,QVQLEVSAGGLVQAGGSLRLSCAASGSTFGYYAMGWYRQAPGKEWELVAAITSGASTNYSDSVKGRFTISRDNAKNSVYLQMNSLKPEDTAVYYCAAGFQTRTPLNEFDYWGQGTQVTVSS,low polyreactivity
16,QVQLVESGGGLVHAGVSLRISCAASGRIFKQYAMGWYRQAPGNERELVAAISVRGGITYYADSVKGRFTISRYHAKNTVYLQMKSLNPEDTAVYYCAKRSYRNHTYDYWGQGTQVTVSS,low polyreactivity
17,QVQLVESGGGLVQAGGSLRLSCAASGRTFYNAMGWYRQAPGKERELVAAITTGGGTKYADSVKGRFTISRDNAKNTVYLQMNSLKPEDTEVYYCATDAPDRTHSDSGFDAGYDYWGQGTQVTLSS,low polyreactivity
18,QVQLVESCGGLVQAGGSLRLSCAASGFNIYRNAMGWYRKAPGKERELVAAISTSVGSTHYADSVKGRFTISRDNAMNTVYLQMYSLKPEDTAVYYCAKRRSIRDEFGYWGQGTQVTVSS,high polyreactivity
19,QVQLVESGGGLVPAGGSLRLSCAASGNIYRYYVMGWYRQAPGKEREFVAAITSSGGSTYYADSVKGRFTISRDNAKNTVYLQMNSLKPEDTAVYYCAKDYWDPGWAEYDDWGQGTQVTVSS,low polyreactivity
20,QVQLEESGGGLVQAGGSLRLSCAASGSTYWLYPMGGYRQATGKERELVATISERGGSTYYADSVKGRFTISRDNAKNTVYLQMNSLKPEDTAVYYCAAHVYGSWPDYDYWGQGTQVSVSS,low polyreactivity
21,QVQLVESGGGLVQAGGSLRLSCAASGIIFRRYAMGWYRQGPGKERELVAAITHRGSTYYADSVKGRFTISRDNAKNTVYLQMNSLKPEDTAVYYCAADGFTRWGRYDYWGQGTQVTVSS,high polyreactivity
